# Reference: US20230406885A1, “CYCLIC PEPTIDES FOR TRAPPING INTERLEUKIN-1 BETA” (MERCK SHARP & DOHME LLC, priority 2022, published 2023)
# *1 amine or outer side, *2 acyl side, *3 side chain or, on linkers, in order; H or OH if unused. [ ]: non-standard residue; d: D form. TyrEtNAc = L-tyrosine O-ethyl acetamide, (S)-3-(4-(2-acetamidoethoxy)phenyl)-2-aminopropanoic acid, CC(=O)NCCOc1ccc(C[C@H](N[*:1])C(=O)[*:2])cc1; 3AzaPhe4AcPip = (S)-3-(6-(4-acetylpiperazin-1-yl)pyridin-3-yl)-2-aminopropanoic acid, CC(=O)N1CCN(c2ccc(C[C@H](N[*:1])C(=O)[*:2])cn2)CC1; Pro(trans-4-NH2) = O=C([C@@H]1C[C@@H](N[*:3])CN1[*:1])[*:2]; Trp(βS-Me,4-F) = C[C@@H](c1c[nH]c2cccc(F)c12)[C@H](N)C(=O)O; Bip(4'-COOH) = N[C@@H](Cc1ccc(-c2ccc(C(=O)O)cc2)cc1)C(=O)O; hQ = L-homoglutamine, NC(=O)CCC[C@H](N[*:1])C(=O)[*:2]; 1Nal(3S-Me) = C[C@@H](c1cccc2ccccc12)[C@H](N)C(=O)O; Phe(4-COOH) = N[C@@H](Cc1ccc(C(=O)O)cc1)C(=O)O; h3Pal(5-CN) = N#Cc1cncc(CC[C@H](N)C(=O)O)c1; hTyr = N[C@@H](CCc1ccc(O)cc1)C(=O)O; hCha = N[C@@H](CCC1CCCCC1)C(=O)O; tBuAla = CC(C)(C)C[C@H](N)C(=O)O; dNle = CCCC[C@@H](N)C(=O)O; dNva = CCC[C@@H](N)C(=O)O; Orn = NCCC[C@H](N)C(=O)O; dNMeA = CN[C@H](C)C(=O)O; Dab = NCC[C@H](N)C(=O)O; Dap = NC[C@H](N)C(=O)O
# B1: SEQ ID NO: 173 (Example No. 173) (peptide)
# peptide: cyclo([TyrEtNAc]W[Phe(4-COOH)]G[Pro(trans-4-NH2)][Trp(βS-Me,4-F)]D[dNMeA]G[Bip(4'-COOH)]WS[dA][TyrEtNAc])
# SMILES: CC(=O)NCCOc1ccc(C[C@@H]2NC(=O)[C@H](Cc3ccc(OCCNC(C)=O)cc3)NC(=O)[C@@H](C)NC(=O)[C@H](CO)NC(=O)[C@H](Cc3c[nH]c4ccccc34)NC(=O)[C@H](Cc3ccc(-c4ccc(C(=O)O)cc4)cc3)NC(=O)CNC(=O)[C@@H](C)N(C)C(=O)[C@H](CC(=O)O)NC(=O)[C@H]([C@@H](C)c3c[nH]c4cccc(F)c34)NC(=O)[C@@H]3C[C@@H](N)CN3C(=O)CNC(=O)[C@H](Cc3ccc(C(=O)O)cc3)NC(=O)[C@H](Cc3c[nH]c4ccccc34)NC2=O)cc1
# B2: SEQ ID NO: 175 (Example No. 175) (peptide)
# peptide: cyclo([3AzaPhe4AcPip]W[Phe(4-COOH)]G[Pro(trans-4-NH2)][1Nal(3S-Me)]D[dNMeA]G[Bip(4'-COOH)][Dap]L[dA][hCha])
# SMILES: CC(=O)N1CCN(c2ccc(C[C@@H]3NC(=O)[C@H](CCC4CCCCC4)NC(=O)[C@@H](C)NC(=O)[C@H](CC(C)C)NC(=O)[C@H](CN)NC(=O)[C@H](Cc4ccc(-c5ccc(C(=O)O)cc5)cc4)NC(=O)CNC(=O)[C@@H](C)N(C)C(=O)[C@H](CC(=O)O)NC(=O)[C@H]([C@@H](C)c4cccc5ccccc45)NC(=O)[C@@H]4C[C@@H](N)CN4C(=O)CNC(=O)[C@H](Cc4ccc(C(=O)O)cc4)NC(=O)[C@H](Cc4c[nH]c5ccccc45)NC3=O)cn2)CC1
# B3: SEQ ID NO: 184 (Example No. 184) (peptide)
# peptide: cyclo([Bip(4'-COOH)][Trp6Cl][Phe(4-COOH)]G[Pro(trans-4-NH2)][Trp(βS-Me,4-F)]D[dNMeA]G[Bip(4'-COOH)]KL[dA][hTyr])
# B4: SEQ ID NO: 177 (Example No. 177) (peptide)
# peptide: cyclo([3AzaPhe4AcPip]W[Phe(4-COOH)]G[Pro(trans-4-NH2)][1Nal(3S-Me)]D[dNMeA]G[Bip(4'-COOH)]KL[dA][hCha])
# SMILES: CC(=O)N1CCN(c2ccc(C[C@@H]3NC(=O)[C@H](CCC4CCCCC4)NC(=O)[C@@H](C)NC(=O)[C@H](CC(C)C)NC(=O)[C@H](CCCCN)NC(=O)[C@H](Cc4ccc(-c5ccc(C(=O)O)cc5)cc4)NC(=O)CNC(=O)[C@@H](C)N(C)C(=O)[C@H](CC(=O)O)NC(=O)[C@H]([C@@H](C)c4cccc5ccccc45)NC(=O)[C@@H]4C[C@@H](N)CN4C(=O)CNC(=O)[C@H](Cc4ccc(C(=O)O)cc4)NC(=O)[C@H](Cc4c[nH]c5ccccc45)NC3=O)cn2)CC1
# B5: SEQ ID NO: 180 (Example No. 180) (peptide)
# peptide: cyclo([3AzaPhe4AcPip]W[Phe(4-COOH)]G[Pro(trans-4-NH2)][1Nal(3S-Me)]D[dNMeA]G[Bip(4'-COOH)]KL[dNva][h3Pal(5-CN)])
# SMILES: CCC[C@H]1NC(=O)[C@H](CC(C)C)NC(=O)[C@H](CCCCN)NC(=O)[C@H](Cc2ccc(-c3ccc(C(=O)O)cc3)cc2)NC(=O)CNC(=O)[C@@H](C)N(C)C(=O)[C@H](CC(=O)O)NC(=O)[C@H]([C@@H](C)c2cccc3ccccc23)NC(=O)[C@@H]2C[C@@H](N)CN2C(=O)CNC(=O)[C@H](Cc2ccc(C(=O)O)cc2)NC(=O)[C@H](Cc2c[nH]c3ccccc23)NC(=O)[C@H](Cc2ccc(N3CCN(C(C)=O)CC3)nc2)NC(=O)[C@H](CCc2cncc(C#N)c2)NC1=O
# B6: SEQ ID NO: 176 (Example No. 176) (peptide)
# peptide: cyclo([3AzaPhe4AcPip]W[Phe(4-COOH)]G[Pro(trans-4-NH2)][1Nal(3S-Me)]D[dNMeA]G[Bip(4'-COOH)][hQ]L[dA][h3Pal(5-CN)])
# SMILES: CC(=O)N1CCN(c2ccc(C[C@@H]3NC(=O)[C@H](CCc4cncc(C#N)c4)NC(=O)[C@@H](C)NC(=O)[C@H](CC(C)C)NC(=O)[C@H](CCCC(N)=O)NC(=O)[C@H](Cc4ccc(-c5ccc(C(=O)O)cc5)cc4)NC(=O)CNC(=O)[C@@H](C)N(C)C(=O)[C@H](CC(=O)O)NC(=O)[C@H]([C@@H](C)c4cccc5ccccc45)NC(=O)[C@@H]4C[C@@H](N)CN4C(=O)CNC(=O)[C@H](Cc4ccc(C(=O)O)cc4)NC(=O)[C@H](Cc4c[nH]c5ccccc45)NC3=O)cn2)CC1
# B7: SEQ ID NO: 185 (Example No. 185) (peptide)
# peptide: cyclo([Bip(4'-COOH)][Trp7F][Phe(4-COOH)]G[Pro(trans-4-NH2)][Trp(βS-Me,4-F)]D[dNMeA]G[Bip(4'-COOH)]KL[dA][hTyr])
# B8: SEQ ID NO: 181 (Example No. 181) (peptide)
# peptide: cyclo([3AzaPhe4AcPip]W[Phe(4-COOH)]G[Pro(trans-4-NH2)][1Nal(3S-Me)]D[dNMeA]G[Bip(4'-COOH)]K[tBuAla][dA][h3Pal(5-CN)])
# SMILES: CC(=O)N1CCN(c2ccc(C[C@@H]3NC(=O)[C@H](CCc4cncc(C#N)c4)NC(=O)[C@@H](C)NC(=O)[C@H](CC(C)(C)C)NC(=O)[C@H](CCCCN)NC(=O)[C@H](Cc4ccc(-c5ccc(C(=O)O)cc5)cc4)NC(=O)CNC(=O)[C@@H](C)N(C)C(=O)[C@H](CC(=O)O)NC(=O)[C@H]([C@@H](C)c4cccc5ccccc45)NC(=O)[C@@H]4C[C@@H](N)CN4C(=O)CNC(=O)[C@H](Cc4ccc(C(=O)O)cc4)NC(=O)[C@H](Cc4c[nH]c5ccccc45)NC3=O)cn2)CC1
# B9: SEQ ID NO: 182 (Example No. 182) (peptide)
# peptide: cyclo([3AzaPhe4AcPip]W[Phe(4-COOH)]G[Pro(trans-4-NH2)][1Nal(3S-Me)]D[dNMeA]G[Bip(4'-COOH)][Orn]L[dA][hCha])
# SMILES: CC(=O)N1CCN(c2ccc(C[C@@H]3NC(=O)[C@H](CCC4CCCCC4)NC(=O)[C@@H](C)NC(=O)[C@H](CC(C)C)NC(=O)[C@H](CCCN)NC(=O)[C@H](Cc4ccc(-c5ccc(C(=O)O)cc5)cc4)NC(=O)CNC(=O)[C@@H](C)N(C)C(=O)[C@H](CC(=O)O)NC(=O)[C@H]([C@@H](C)c4cccc5ccccc45)NC(=O)[C@@H]4C[C@@H](N)CN4C(=O)CNC(=O)[C@H](Cc4ccc(C(=O)O)cc4)NC(=O)[C@H](Cc4c[nH]c5ccccc45)NC3=O)cn2)CC1
# B10: SEQ ID NO: 178 (Example No. 178) (peptide)
# peptide: cyclo([3AzaPhe4AcPip]W[Phe(4-COOH)]G[Pro(trans-4-NH2)][1Nal(3S-Me)]D[dNMeA]G[Bip(4'-COOH)]KL[dL][h3Pal(5-CN)])
# SMILES: CC(=O)N1CCN(c2ccc(C[C@@H]3NC(=O)[C@H](CCc4cncc(C#N)c4)NC(=O)[C@@H](CC(C)C)NC(=O)[C@H](CC(C)C)NC(=O)[C@H](CCCCN)NC(=O)[C@H](Cc4ccc(-c5ccc(C(=O)O)cc5)cc4)NC(=O)CNC(=O)[C@@H](C)N(C)C(=O)[C@H](CC(=O)O)NC(=O)[C@H]([C@@H](C)c4cccc5ccccc45)NC(=O)[C@@H]4C[C@@H](N)CN4C(=O)CNC(=O)[C@H](Cc4ccc(C(=O)O)cc4)NC(=O)[C@H](Cc4c[nH]c5ccccc45)NC3=O)cn2)CC1
# B11: SEQ ID NO: 179 (Example No. 179) (peptide)
# peptide: cyclo([3AzaPhe4AcPip]W[Phe(4-COOH)]G[Pro(trans-4-NH2)][1Nal(3S-Me)]D[dNMeA]G[Bip(4'-COOH)]KL[dNle][h3Pal(5-CN)])
# SMILES: CCCC[C@H]1NC(=O)[C@H](CC(C)C)NC(=O)[C@H](CCCCN)NC(=O)[C@H](Cc2ccc(-c3ccc(C(=O)O)cc3)cc2)NC(=O)CNC(=O)[C@@H](C)N(C)C(=O)[C@H](CC(=O)O)NC(=O)[C@H]([C@@H](C)c2cccc3ccccc23)NC(=O)[C@@H]2C[C@@H](N)CN2C(=O)CNC(=O)[C@H](Cc2ccc(C(=O)O)cc2)NC(=O)[C@H](Cc2c[nH]c3ccccc23)NC(=O)[C@H](Cc2ccc(N3CCN(C(C)=O)CC3)nc2)NC(=O)[C@H](CCc2cncc(C#N)c2)NC1=O
# B12: SEQ ID NO: 174 (Example No. 174) (peptide)
# peptide: cyclo([3AzaPhe4AcPip]W[Phe(4-COOH)]G[Pro(trans-4-NH2)][1Nal(3S-Me)]D[dNMeA]G[Bip(4'-COOH)][Dab]L[dA][hCha])
# SMILES: CC(=O)N1CCN(c2ccc(C[C@@H]3NC(=O)[C@H](CCC4CCCCC4)NC(=O)[C@@H](C)NC(=O)[C@H](CC(C)C)NC(=O)[C@H](CCN)NC(=O)[C@H](Cc4ccc(-c5ccc(C(=O)O)cc5)cc4)NC(=O)CNC(=O)[C@@H](C)N(C)C(=O)[C@H](CC(=O)O)NC(=O)[C@H]([C@@H](C)c4cccc5ccccc45)NC(=O)[C@@H]4C[C@@H](N)CN4C(=O)CNC(=O)[C@H](Cc4ccc(C(=O)O)cc4)NC(=O)[C@H](Cc4c[nH]c5ccccc45)NC3=O)cn2)CC1
# B13: SEQ ID NO: 172 (Example No. 172) (peptide)
# peptide: cyclo([TyrEtNAc]W[Phe(4-COOH)]G[Pro(trans-4-NH2)][Trp(βS-Me,4-F)]D[dNMeA]G[Bip(4'-COOH)]WS[dA][hTyr])
# SMILES: CC(=O)NCCOc1ccc(C[C@@H]2NC(=O)[C@H](CCc3ccc(O)cc3)NC(=O)[C@@H](C)NC(=O)[C@H](CO)NC(=O)[C@H](Cc3c[nH]c4ccccc34)NC(=O)[C@H](Cc3ccc(-c4ccc(C(=O)O)cc4)cc3)NC(=O)CNC(=O)[C@@H](C)N(C)C(=O)[C@H](CC(=O)O)NC(=O)[C@H]([C@@H](C)c3c[nH]c4cccc(F)c34)NC(=O)[C@@H]3C[C@@H](N)CN3C(=O)CNC(=O)[C@H](Cc3ccc(C(=O)O)cc3)NC(=O)[C@H](Cc3c[nH]c4ccccc34)NC2=O)cc1
# B14: SEQ ID NO: 183 (Example No. 183) (peptide)
# peptide: cyclo([3AzaPhe4AcPip]W[Phe(4-COOH)]G[Pro(trans-4-NH2)][1Nal(3S-Me)]D[dNMeA]G[Bip(4'-COOH)]QL[dA][h3Pal(5-CN)])
# SMILES: CC(=O)N1CCN(c2ccc(C[C@@H]3NC(=O)[C@H](CCc4cncc(C#N)c4)NC(=O)[C@@H](C)NC(=O)[C@H](CC(C)C)NC(=O)[C@H](CCC(N)=O)NC(=O)[C@H](Cc4ccc(-c5ccc(C(=O)O)cc5)cc4)NC(=O)CNC(=O)[C@@H](C)N(C)C(=O)[C@H](CC(=O)O)NC(=O)[C@H]([C@@H](C)c4cccc5ccccc45)NC(=O)[C@@H]4C[C@@H](N)CN4C(=O)CNC(=O)[C@H](Cc4ccc(C(=O)O)cc4)NC(=O)[C@H](Cc4c[nH]c5ccccc45)NC3=O)cn2)CC1
# Target: Recombinant human IL-1β (BioLegend 579404) (human, UniProt P01584 117-269)
# Assay: cell-based or functional assay
row,Binder,MRC5 IC50
1,B1,959 pM
2,B2,16 pM
3,B3,18 pM
4,B4,13 pM
5,B5,21 pM
6,B6,17 pM
7,B7,24 pM
8,B8,15 pM
9,B9,13 pM
10,B10,19 pM
11,B11,17 pM
12,B12,15 pM
13,B13,246 pM
14,B14,13 pM
